Measured values taken from the supplement of paper PMC6755084.

B1: minF1; the commonest letter at each place (parent)
chain: GAGACCGCAACTGAAAAGTTGTTATCAGAAATGGATGGGTTGAATTTCTGCACGTAGAAGCAAAAGGC

Variants of: B1
Experiment: fraction ligated after 30 min (ligated reads / total reads); higher = more ligase activity
Details: with F1*subA RNA substrate (template-directed ligation), 42 °C
Method in brief: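 Fraction ligated for every variant was calculated as the share of total reads that came from ligated RNA. Minimized ligase ribozyme variants were made from oligo-pool templates by PCR amplification, T7 transcription and gel purification. After gel separation of ligated and unligated RNAs, reverse transcription with barcoded primers and MiSeq sequencing followed. Only core bases at quality ≥30 passed filtering.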

Variant	fraction ligated
GAGACCGCAACTGAAAAGTTGTTATCAGAAACGGATAGGTTGAATTTCTGCACGTAGAAGCAAAAGGC [T32C G37A]	0.00241
GAGACCGCAACTGAAAAGTTGTTATCAGAAACGGATCGGTTGAATTTCTGCACGTAGAAGCAAAAGGC [T32C G37C]	0.00446
GAGACCGCAACTGAAAAGTTGTTATCAGAAACGGATTGGTTGAATTTCTGCACGTAGAAGCAAAAGGC [T32C G37T]	0.00216
GAGACCGCAACTGAAAAGTTGTTATCAGAAAGGGATGGGTTGACTTTCTGCACGTAGAAGCAAAAGGC [T32G A44C]	0.067
GAGACCGCAACTGAAAAGTTGTTATCAGAAAGGGATGGGTTGATTTTCTGCACGTAGAAGCAAAAGGC [T32G A44T]	0.0536
GAGACCGCAACTGAAAAGTTGTTATCAGAAAGGGATGGGTTGAGTTTCTGCACGTAGAAGCAAAAGGC [T32G A44G]	0.0444
GAGACCGCAACTGAAAAGTTGTTATCAGAAATAGATGGGTTGGATTTCTGCACGTAGAAGCAAAAGGC [G33A A43G]	0.0533
GAGACCGCAACTGAAAAGTTGTTATCAGAAATAGATGGGTTGTATTTCTGCACGTAGAAGCAAAAGGC [G33A A43T]	0.0914
GAGACCGCAACTGAAAAGTTGTTATCAGAAATAGATGGGTTGCATTTCTGCACGTAGAAGCAAAAGGC [G33A A43C]	0.0816
GAGACCGCAACTGAAAAGTTGTTATCAGAAACTGATGGGTTGAATTTCTGCACGTAGAAGCAAAAGGC [T32C G33T]	0.0247
GAGACCGCAACTGAAAAGTTGTTATCAGAAACCGATGGGTTGAATTTCTGCACGTAGAAGCAAAAGGC [T32C G33C]	0.0121
GAGACCGCAACTGAAAAGTTGTTATCAGAAACAGATGGGTTGAATTTCTGCACGTAGAAGCAAAAGGC [T32C G33A]	0.0169
GAGACCGCAACTGAAAAGTTGTTATCAGAAACGTATGGGTTGAATTTCTGCACGTAGAAGCAAAAGGC [T32C G34T]	0.00428
GAGACCGCAACTGAAAAGTTGTTATCAGAAACGCATGGGTTGAATTTCTGCACGTAGAAGCAAAAGGC [T32C G34C]	0.00341
GAGACCGCAACTGAAAAGTTGTTATCAGAAACGAATGGGTTGAATTTCTGCACGTAGAAGCAAAAGGC [T32C G34A]	0.00321
GAGACCGCAACTGAAAAGTTGTTATCAGAAAGTGATGGGTTGAATTTCTGCACGTAGAAGCAAAAGGC [T32G G33T]	0.0125
GAGACCGCAACTGAAAAGTTGTTATCAGAAAGAGATGGGTTGAATTTCTGCACGTAGAAGCAAAAGGC [T32G G33A]	0.0116
GAGACCGCAACTGAAAAGTTGTTATCAGAAAGCGATGGGTTGAATTTCTGCACGTAGAAGCAAAAGGC [T32G G33C]	0.00893
GAGACCGCAACTGAAAAGTTGTTATCAGAAACGGATGGGTTGACTTTCTGCACGTAGAAGCAAAAGGC [T32C A44C]	0.0116
GAGACCGCAACTGAAAAGTTGTTATCAGAAACGGATGGGTTGAGTTTCTGCACGTAGAAGCAAAAGGC [T32C A44G]	0.0172

Variant	fraction ligated
GAGACCGCAACTGAAAAGTTGTTATCAGAAACGGATGGGTTGATTTTCTGCACGTAGAAGCAAAAGGC [T32C A44T]	0.0253
GAGACCGCAACTGAAAAGTTGTTATCAGAAACGGAGGGGTTGAATTTCTGCACGTAGAAGCAAAAGGC [T32C T36G]	0.00825
GAGACCGCAACTGAAAAGTTGTTATCAGAAACGGAAGGGTTGAATTTCTGCACGTAGAAGCAAAAGGC [T32C T36A]	0.00145
GAGACCGCAACTGAAAAGTTGTTATCAGAAACGGACGGGTTGAATTTCTGCACGTAGAAGCAAAAGGC [T32C T36C]	0.00318
GAGACCGCAACTGAAAAGTTGTTATCAGAAATAGATGGGTTGATTTTCTGCACGTAGAAGCAAAAGGC [G33A A44T]	0.553
GAGACCGCAACTGAAAAGTTGTTATCAGAAATAGATGGGTTGACTTTCTGCACGTAGAAGCAAAAGGC [G33A A44C]	0.479
GAGACCGCAACTGAAAAGTTGTTATCAGAAATAGATGGGTTGAGTTTCTGCACGTAGAAGCAAAAGGC [G33A A44G]	0.576
GAGACCGCAACTGAAAAGTTGTTATCAGAAAGGGATGGGTTCAATTTCTGCACGTAGAAGCAAAAGGC [T32G G42C]	0.00582
GAGACCGCAACTGAAAAGTTGTTATCAGAAAGGGATGGGTTAAATTTCTGCACGTAGAAGCAAAAGGC [T32G G42A]	0.00352
GAGACCGCAACTGAAAAGTTGTTATCAGAAAGGGATGGGTTTAATTTCTGCACGTAGAAGCAAAAGGC [T32G G42T]	0.00243
GAGACCGCAACTGAAAAGTTGTTATCAGAAATAGCTGGGTTGAATTTCTGCACGTAGAAGCAAAAGGC [G33A A35C]	0.026
GAGACCGCAACTGAAAAGTTGTTATCAGAAATAGGTGGGTTGAATTTCTGCACGTAGAAGCAAAAGGC [G33A A35G]	0.265
GAGACCGCAACTGAAAAGTTGTTATCAGAAATAGTTGGGTTGAATTTCTGCACGTAGAAGCAAAAGGC [G33A A35T]	0.0202
GAGACCGCAACTGAAAAGTTGTTATCAGAAAAAGATGGGTTGAATTTCTGCACGTAGAAGCAAAAGGC [T32A G33A]	0.032
GAGACCGCAACTGAAAAGTTGTTATCAGAAAACGATGGGTTGAATTTCTGCACGTAGAAGCAAAAGGC [T32A G33C]	0.0102
GAGACCGCAACTGAAAAGTTGTTATCAGAAAATGATGGGTTGAATTTCTGCACGTAGAAGCAAAAGGC [T32A G33T]	0.0384
GAGACCGCAACTGAAAAGTTGTTATCAGAAAAGCATGGGTTGAATTTCTGCACGTAGAAGCAAAAGGC [T32A G34C]	0.0031
GAGACCGCAACTGAAAAGTTGTTATCAGAAAAGTATGGGTTGAATTTCTGCACGTAGAAGCAAAAGGC [T32A G34T]	0.00436
GAGACCGCAACTGAAAAGTTGTTATCAGAAAAGAATGGGTTGAATTTCTGCACGTAGAAGCAAAAGGC [T32A G34A]	0.00575
